Experimental data as given in patent publication US20240293316.

Columns and labels:
[1] = system: NorMMPD (norbornene monomer functionalized with the D-MMP peptide)
[2] = system: NorMMPL (norbornene monomer functionalized with the L-MMP peptide)
[3] = system: NorMMPR (norbornene monomer functionalized with the random peptide R-MMP)

Chain of MMP-9 (chain, as listed by the source): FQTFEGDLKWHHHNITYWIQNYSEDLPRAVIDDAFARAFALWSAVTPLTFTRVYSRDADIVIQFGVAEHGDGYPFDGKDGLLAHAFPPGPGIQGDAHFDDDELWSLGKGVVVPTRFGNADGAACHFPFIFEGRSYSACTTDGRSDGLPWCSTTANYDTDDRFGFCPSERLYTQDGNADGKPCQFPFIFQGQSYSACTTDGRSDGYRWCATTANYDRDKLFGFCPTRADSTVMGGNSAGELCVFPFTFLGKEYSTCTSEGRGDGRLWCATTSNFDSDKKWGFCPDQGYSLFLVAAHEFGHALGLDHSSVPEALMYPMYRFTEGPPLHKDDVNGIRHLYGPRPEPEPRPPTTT

MMP-9
MMP-9 cleavage assay (HPLC after 24 hours of incubation with MMP-9 at 37° C.; 0.5 µM MMP-9 : 500 µM NorMMP) [1]: remained intact
MMP-9 cleavage assay (HPLC after 24 hours of incubation with MMP-9 at 37° C.; 0.5 µM MMP-9 : 500 µM NorMMP) [2]: NorMMPL was completely cleaved
MMP-9 cleavage assay (HPLC after 24 hours of incubation with MMP-9 at 37° C.; 0.5 µM MMP-9 : 500 µM NorMMP) [3]: remained intact
